Laboratory results: the supplement of paper PMC10126150
± gives the standard deviation of the averaged measurements.

tested on: ATP; assay: switch fluorescence ratio, 500 uM ATP over buffer (Cy3 cluster intensity, sum of 5 cycles each) (fold (ratio)); higher = stronger signal-on switching upon ATP binding; sequences stand for … in TCGTCGGCAGCGTCAGATGTGTATAAGAGACAGTTTTTTTTTTTTTTTTTTTTTTTTT…TC; settings: aptamer strand: ATP DNA aptamer (quencher-CACCTGGGGGAGTATTGCGGAGGAAGG + anchor), 100 nM annealed; ATP concentration: 500 uM
Method in brief: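 Per cluster, summed Cy3 intensity from the target cycles was divided by that from the buffer cycles to give the fluorescence ratio, then averaged per switch-domain sequence. Clusters outside 100-1000 RFU were excluded. The Cy3-labelled switching-strand clusters, on a modified Illumina MiSeq flow-cell, were annealed to 100 nM quencher-labelled ATP aptamer and imaged in selection buffer, then after 15 min with 500 uM ATP at 22 °C, for five cycles with NaOH stripping and re-annealing between them.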
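Further: ATP exposure 15 min at 22 °C before imaging.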

Sequence	switch fluorescence ratio
GAGATGTAGG	1 ± 0.014
CGGGGGGATA	1.07 ± 0.15
CGGAGGAAGG	1.044 ± 0.0072
AGTTGATCCC	1.02 ± 0.025
AAAATCGCGG	0.9844 ± 0.0018
GAGTGGGGAG	0.968 ± 0.045
ATATATAGCC	1.01 ± 0.022
CCTTACCTTG	1.04 ± 0.041
TAGACCAAAA	1.02 ± 0.017
ATTTGTGTTT	0.9931 ± 0.0027
GTGTGCAACT	1.02 ± 0.024
TTTGTTTCAC	1.04 ± 0.043
GGCGATTGGA	1 ± 0.016
ATTTTGTGAG	0.969 ± 0.031
AATGAAGTTT	1.43 ± 0.7
GTGTGAGTTA	0.992 ± 0.034
CGGGGGCTCG	0.989 ± 0.069
CCATGGGGCT	1.29 ± 0.46
TCGTAAGAAA	1.01 ± 0.043
CACAGTTTGC	1.02 ± 0.026
CGTTAATACT	2.98 ± 0.045
GCAGGTTGAC	1.034 ± 0.003

Sequence	switch fluorescence ratio
CTTGGAGTGG	0.978 ± 0.024
AATTAAATA	0.979 ± 0.037
TTCGATTGTT	0.952 ± 0.018
TTTTATCGAG	0.9893 ± 0.0093
CAATTTGTGC	1.02 ± 0.1
AGTACGTGCG	0.9781 ± 0.0081
GGAGGGCTTT	0.956 ± 0.064
CGGGGAAAAA	1.06 ± 0.094
GAAGAATAGG	0.967 ± 0.015
TATCTTTTTT	0.98 ± 0.024
TTTTGCAGCT	1 ± 0.019
TGGATGGCC	1.02 ± 0.032
AAATGTCTAG	1.01 ± 0.037
GAACATTTTT	1.03 ± 0.021
TTTTCCCCCT	1.081 ± 0.0069
TTAGGCCCTG	0.992 ± 0.041
ATCGTTCTGC	1.1 ± 0.019
CCGACTAAAA	4.27 ± 0.41
TGTCGGCTGG	1.02 ± 0.052
CGGGCGTGCC	0.966 ± 0.014
GCGGACCGGT	0.968 ± 0.04
CCAGGTATGG	1.05 ± 0.013

Sequence	switch fluorescence ratio
AAGTAGTCGT	1.01 ± 0.05
ATCGTGAGGC	1.05 ± 0.022
GAAAAACCTT	3.83 ± 1.6
CGCCTGGCCG	0.9439 ± 0.0079
AGGGGGGAGC	1.01 ± 0.029
AATTGATTAG	1.03 ± 0.038
TGTCGCATTT	1.04 ± 0.012
TACATTTAGG	0.9964 ± 0.0092
CCGTGGAAAG	1.02 ± 0.027
CATACACAGG	1.26 ± 0.078
GGATTAGTGT	0.987 ± 0.032
GGACCGCCTG	1.01 ± 0.011
TCACGTGGTT	1.03 ± 0.016
ACAAATATAT	1.17 ± 0.081
AAAAACATAG	1.03 ± 0.017
AATATTTTAT	1.014 ± 0.0022
CGGGGCAGCT	1.1 ± 0.11
TCGTTCACTG	0.9891 ± 0.007
TGCAGTTTGA	1.02 ± 0.012
TCGGGGGCTG	0.9799 ± 0.0077
GGAGGGGTTA	0.978 ± 0.015
TTCGTGTATT	1 ± 0.025

Sequence	switch fluorescence ratio
TTTTTATGAA	1.011 ± 0.0019
AGAAAAGGTG	1.19 ± 0.13
ATTTAGCCTA	0.9758 ± 0.0079
AAGGAGAGCT	1.01 ± 0.054
GAGGATTAGC	0.99 ± 0.036
TTCAGACTTT	0.996 ± 0.022
CACCTACATG	1.21 ± 0.031
CGGTGGGGCG	1 ± 0.034
GACGACGGAG	0.969 ± 0.034
GGCCGGTGGA	1.02 ± 0.038
TCTGGACTCG	1 ± 0.025
AAGGGGTCTC	0.998 ± 0.021
CCGCTTCCGG	1.08 ± 0.018
TATGCAGGGA	1.16 ± 0.29
GCCGTACTCT	1.1 ± 0.1
CGTAAAAAAT	0.986 ± 0.068
AGAAGAAGGG	1.03 ± 0.017
TCTCGATTTT	1.038 ± 0.0042
TTCCAATGAT	1.01 ± 0.044
